Data from the supplement of paper PMC10065799, “High-throughput profiling of sequence recognition by tyrosine kinases and SH2 domains using bacterial peptide display” (eLife, 2023).

The sequences below were run against Hck (UniProt P08631) (assay: phosphorylation enrichment, bacterial display (enrichment ratio); higher = better substrate or ligand; peptides without Tyr show the background).
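Also: 11-residue human phosphosite peptides and single-mutation variants displayed on the E. coli surface, counted by deep sequencing, each peptide's frequency after selection divided by its frequency in the unselected input library; frequency after pTyr selection over input frequency; kinase dosed for 20-30% of maximal phosphorylation in three min.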

Sequence of Hck (P08631 whole entry, looked up): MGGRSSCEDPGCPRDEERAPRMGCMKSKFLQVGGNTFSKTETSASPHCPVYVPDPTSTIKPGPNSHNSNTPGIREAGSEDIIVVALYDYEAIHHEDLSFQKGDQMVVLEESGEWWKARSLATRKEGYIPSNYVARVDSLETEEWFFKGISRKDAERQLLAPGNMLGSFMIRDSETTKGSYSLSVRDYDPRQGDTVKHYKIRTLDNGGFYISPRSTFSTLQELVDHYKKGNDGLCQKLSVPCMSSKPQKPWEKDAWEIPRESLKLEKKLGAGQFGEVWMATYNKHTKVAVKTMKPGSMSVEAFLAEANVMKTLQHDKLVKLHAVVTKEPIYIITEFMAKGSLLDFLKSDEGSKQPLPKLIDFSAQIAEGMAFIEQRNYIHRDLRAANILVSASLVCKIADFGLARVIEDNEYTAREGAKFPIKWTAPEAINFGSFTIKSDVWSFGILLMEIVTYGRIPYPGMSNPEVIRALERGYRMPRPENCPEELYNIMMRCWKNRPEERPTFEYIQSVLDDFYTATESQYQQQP

Sequence | phosphorylation enrichment
GGDAVYTNGTI [RFX2_Y82_A86T] | 1.19
PPKFFDTRKLL [CYBB_Y41_Y41D] | 0.51
TRVMEYISRLD [CLTCL1_Y1043] | 0.511
VTQEQYELYCE [CBL_Y368] | 0.989
PSAELYSYALP [PDGFRB_Y716_N718Y] | 8.81
TLKDVCDDGKY [RPS6KA3_Y483_Y483C] | 0.622
TVHCDYLNISH [TAF1L_Y1385_P1389S] | 0.562
EYKDAYKFAAD [BRDT_Y335] | 0.542
KKIMGYSIRTI [IDS_Y490_I485K] | 0.387
FADIAYSFRHG [PAH_Y166_N167S_YF] | 0.44
GRVLGYGAFGK [FLT4_Y853] | 0.427
GLNKGYRMVVN [HINT1_Y94] | 0.436
SDVCMYRKNIF [SYNE2_Y570_YF] | 0.355
AERKLYSGAQT [ZAP70_Y178] | 0.395
GENTMYAQVFN [LY9_Y603] | 3.32
QKDTFYGLRSL [IGSF10_Y126] | 0.598
SVSNNYIQTLG [CTNND1_Y174] | 0.417

Sequence | phosphorylation enrichment
QRVLLYVQRET [GRHL3_Y518_R520Q] | 0.509
EFLQKYKGFKI [SYNE1_Y6953_YF] | 0.411
PIAPVYAPSMV [ACAT1_Y331_A333P] | 21
NDLMEYAKQHG [ASS1_Y163] | 0.502
FMKEPYIQSRF [HIPK4_Y175_V171M_YF] | 0.393
IQSAKYDMAED [TTC21B_Y1213] | 0.687
KLSHLYQDHMQ [WNT5A_Y86_C83S] | 0.455
FPPDGYSRHFE [CTNND1_Y213_YF] | 0.408
AELVPYFMEHH [PTPN11_Y80_Q79P_YF] | 0.562
EYFDGYWGYSV [ITGA2B_Y265] | 5.55
FLNSSYINIST [IL23R_Y178_T175N_YF] | 0.471
WIPIQYPIISE [NOG_Y222] | 0.439
FDKPVYQKTTE [LDLR_Y828_N825K] | 0.436
TRSFDYTEGGD [FGF7_Y58_M59T_YF] | 0.501
SASRSYSRSRS [SRRM4_Y549] | 0.503
LGNFNYEQRGA [API5_Y497] | 0.485

What follows are sequences tested against EPHB1 (UniProt P54762) in the same assay as above.
Sequence of EPHB1 (P54762 whole entry, looked up): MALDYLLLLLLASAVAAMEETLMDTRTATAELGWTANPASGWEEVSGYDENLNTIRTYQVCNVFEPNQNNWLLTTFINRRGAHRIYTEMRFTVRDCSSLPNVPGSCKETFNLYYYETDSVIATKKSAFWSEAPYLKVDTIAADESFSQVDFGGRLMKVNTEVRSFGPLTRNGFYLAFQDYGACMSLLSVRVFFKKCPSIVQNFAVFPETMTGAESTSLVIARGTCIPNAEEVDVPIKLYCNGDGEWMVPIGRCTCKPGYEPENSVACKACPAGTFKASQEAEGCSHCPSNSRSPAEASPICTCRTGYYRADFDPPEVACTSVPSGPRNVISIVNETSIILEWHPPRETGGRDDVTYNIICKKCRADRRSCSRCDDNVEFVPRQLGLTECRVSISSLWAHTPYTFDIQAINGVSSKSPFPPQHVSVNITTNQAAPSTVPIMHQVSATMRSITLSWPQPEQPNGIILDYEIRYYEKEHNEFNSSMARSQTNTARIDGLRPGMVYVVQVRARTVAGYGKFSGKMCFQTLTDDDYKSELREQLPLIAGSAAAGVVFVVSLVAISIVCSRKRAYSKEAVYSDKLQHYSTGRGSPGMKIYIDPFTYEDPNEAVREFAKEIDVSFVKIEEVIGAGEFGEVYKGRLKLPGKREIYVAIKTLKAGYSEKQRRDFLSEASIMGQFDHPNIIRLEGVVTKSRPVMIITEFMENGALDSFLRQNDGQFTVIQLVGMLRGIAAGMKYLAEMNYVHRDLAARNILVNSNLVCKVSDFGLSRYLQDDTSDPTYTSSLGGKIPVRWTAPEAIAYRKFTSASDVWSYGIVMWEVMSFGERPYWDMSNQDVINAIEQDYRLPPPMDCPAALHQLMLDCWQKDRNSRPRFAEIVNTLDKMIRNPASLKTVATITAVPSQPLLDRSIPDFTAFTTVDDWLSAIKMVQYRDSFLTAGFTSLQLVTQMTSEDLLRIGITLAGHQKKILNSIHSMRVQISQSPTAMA

Sequence | phosphorylation enrichment
GGDAVYTNGTI [RFX2_Y82_A86T] | 1.39
PPKFFDTRKLL [CYBB_Y41_Y41D] | 0.383
TRVMEYISRLD [CLTCL1_Y1043] | 0.35
VTQEQYELYCE [CBL_Y368] | 0.814
PSAELYSYALP [PDGFRB_Y716_N718Y] | 18
TLKDVCDDGKY [RPS6KA3_Y483_Y483C] | 0.569
TVHCDYLNISH [TAF1L_Y1385_P1389S] | 1.55
EYKDAYKFAAD [BRDT_Y335] | 0.59
KKIMGYSIRTI [IDS_Y490_I485K] | 0.41
FADIAYSFRHG [PAH_Y166_N167S_YF] | 0.344
GRVLGYGAFGK [FLT4_Y853] | 0.364
GLNKGYRMVVN [HINT1_Y94] | 0.307
SDVCMYRKNIF [SYNE2_Y570_YF] | 0.536
AERKLYSGAQT [ZAP70_Y178] | 0.436
GENTMYAQVFN [LY9_Y603] | 1.47
QKDTFYGLRSL [IGSF10_Y126] | 0.488
SVSNNYIQTLG [CTNND1_Y174] | 0.491

Sequence | phosphorylation enrichment
QRVLLYVQRET [GRHL3_Y518_R520Q] | 1.04
EFLQKYKGFKI [SYNE1_Y6953_YF] | 0.372
PIAPVYAPSMV [ACAT1_Y331_A333P] | 2.4
NDLMEYAKQHG [ASS1_Y163] | 0.48
FMKEPYIQSRF [HIPK4_Y175_V171M_YF] | 0.257
IQSAKYDMAED [TTC21B_Y1213] | 0.572
KLSHLYQDHMQ [WNT5A_Y86_C83S] | 0.462
FPPDGYSRHFE [CTNND1_Y213_YF] | 0.363
AELVPYFMEHH [PTPN11_Y80_Q79P_YF] | 0.605
EYFDGYWGYSV [ITGA2B_Y265] | 3.88
FLNSSYINIST [IL23R_Y178_T175N_YF] | 0.338
WIPIQYPIISE [NOG_Y222] | 0.421
FDKPVYQKTTE [LDLR_Y828_N825K] | 0.452
TRSFDYTEGGD [FGF7_Y58_M59T_YF] | 0.569
SASRSYSRSRS [SRRM4_Y549] | 0.466
LGNFNYEQRGA [API5_Y497] | 0.474

Each sequence was assayed on c-Abl (mouse) in the same assay as above.

Sequence | phosphorylation enrichment
GGDAVYTNGTI [RFX2_Y82_A86T] | 0.74
PPKFFDTRKLL [CYBB_Y41_Y41D] | 0.759
TRVMEYISRLD [CLTCL1_Y1043] | 0.565
VTQEQYELYCE [CBL_Y368] | 0.883
PSAELYSYALP [PDGFRB_Y716_N718Y] | 1.55
TLKDVCDDGKY [RPS6KA3_Y483_Y483C] | 0.664
TVHCDYLNISH [TAF1L_Y1385_P1389S] | 0.663
EYKDAYKFAAD [BRDT_Y335] | 0.666
KKIMGYSIRTI [IDS_Y490_I485K] | 0.538
FADIAYSFRHG [PAH_Y166_N167S_YF] | 0.463
GRVLGYGAFGK [FLT4_Y853] | 0.434
GLNKGYRMVVN [HINT1_Y94] | 0.461
SDVCMYRKNIF [SYNE2_Y570_YF] | 0.793
AERKLYSGAQT [ZAP70_Y178] | 0.545
GENTMYAQVFN [LY9_Y603] | 0.958
QKDTFYGLRSL [IGSF10_Y126] | 0.837
SVSNNYIQTLG [CTNND1_Y174] | 0.637

Sequence | phosphorylation enrichment
QRVLLYVQRET [GRHL3_Y518_R520Q] | 1.36
EFLQKYKGFKI [SYNE1_Y6953_YF] | 0.549
PIAPVYAPSMV [ACAT1_Y331_A333P] | 49.8
NDLMEYAKQHG [ASS1_Y163] | 0.75
FMKEPYIQSRF [HIPK4_Y175_V171M_YF] | 0.548
IQSAKYDMAED [TTC21B_Y1213] | 0.825
KLSHLYQDHMQ [WNT5A_Y86_C83S] | 0.616
FPPDGYSRHFE [CTNND1_Y213_YF] | 0.493
AELVPYFMEHH [PTPN11_Y80_Q79P_YF] | 0.741
EYFDGYWGYSV [ITGA2B_Y265] | 4.7
FLNSSYINIST [IL23R_Y178_T175N_YF] | 0.383
WIPIQYPIISE [NOG_Y222] | 0.59
FDKPVYQKTTE [LDLR_Y828_N825K] | 0.606
TRSFDYTEGGD [FGF7_Y58_M59T_YF] | 0.659
SASRSYSRSRS [SRRM4_Y549] | 0.659
LGNFNYEQRGA [API5_Y497] | 0.715

What follows are sequences tested against FGFR1 (UniProt P11362) in the same assay as above.
Sequence of FGFR1 (P11362 whole entry, looked up): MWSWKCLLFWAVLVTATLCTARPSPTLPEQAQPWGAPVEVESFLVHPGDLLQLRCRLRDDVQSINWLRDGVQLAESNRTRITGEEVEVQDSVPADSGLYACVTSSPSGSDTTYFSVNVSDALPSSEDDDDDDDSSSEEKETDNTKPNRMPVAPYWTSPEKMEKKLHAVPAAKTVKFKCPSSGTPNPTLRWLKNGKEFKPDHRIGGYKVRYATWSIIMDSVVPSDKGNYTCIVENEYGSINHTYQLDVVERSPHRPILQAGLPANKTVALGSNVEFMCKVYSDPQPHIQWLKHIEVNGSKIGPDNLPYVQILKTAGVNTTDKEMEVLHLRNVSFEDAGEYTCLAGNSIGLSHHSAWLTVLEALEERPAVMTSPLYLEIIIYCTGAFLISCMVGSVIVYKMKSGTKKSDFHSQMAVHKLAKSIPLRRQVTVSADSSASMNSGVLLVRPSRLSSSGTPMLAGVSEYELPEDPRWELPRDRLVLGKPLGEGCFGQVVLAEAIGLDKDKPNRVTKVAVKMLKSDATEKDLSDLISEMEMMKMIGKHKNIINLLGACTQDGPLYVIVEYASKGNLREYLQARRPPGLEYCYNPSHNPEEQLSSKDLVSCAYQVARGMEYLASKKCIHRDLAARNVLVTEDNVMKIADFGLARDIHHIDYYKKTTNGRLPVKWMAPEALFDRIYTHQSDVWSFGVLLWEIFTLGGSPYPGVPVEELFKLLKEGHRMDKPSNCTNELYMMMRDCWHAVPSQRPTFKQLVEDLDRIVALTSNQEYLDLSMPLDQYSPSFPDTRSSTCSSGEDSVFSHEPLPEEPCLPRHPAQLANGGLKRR

Sequence | phosphorylation enrichment
GGDAVYTNGTI [RFX2_Y82_A86T] | 0.392
PPKFFDTRKLL [CYBB_Y41_Y41D] | 0.365
TRVMEYISRLD [CLTCL1_Y1043] | 0.344
VTQEQYELYCE [CBL_Y368] | 0.622
PSAELYSYALP [PDGFRB_Y716_N718Y] | 10.6
TLKDVCDDGKY [RPS6KA3_Y483_Y483C] | 0.53
TVHCDYLNISH [TAF1L_Y1385_P1389S] | 2.38
EYKDAYKFAAD [BRDT_Y335] | 0.511
KKIMGYSIRTI [IDS_Y490_I485K] | 0.392
FADIAYSFRHG [PAH_Y166_N167S_YF] | 0.313
GRVLGYGAFGK [FLT4_Y853] | 0.348
GLNKGYRMVVN [HINT1_Y94] | 0.388
SDVCMYRKNIF [SYNE2_Y570_YF] | 0.48
AERKLYSGAQT [ZAP70_Y178] | 0.36
GENTMYAQVFN [LY9_Y603] | 0.56
QKDTFYGLRSL [IGSF10_Y126] | 0.562
SVSNNYIQTLG [CTNND1_Y174] | 0.476

Sequence | phosphorylation enrichment
QRVLLYVQRET [GRHL3_Y518_R520Q] | 0.855
EFLQKYKGFKI [SYNE1_Y6953_YF] | 0.393
PIAPVYAPSMV [ACAT1_Y331_A333P] | 0.779
NDLMEYAKQHG [ASS1_Y163] | 0.487
FMKEPYIQSRF [HIPK4_Y175_V171M_YF] | 0.372
IQSAKYDMAED [TTC21B_Y1213] | 0.611
KLSHLYQDHMQ [WNT5A_Y86_C83S] | 0.439
FPPDGYSRHFE [CTNND1_Y213_YF] | 0.398
AELVPYFMEHH [PTPN11_Y80_Q79P_YF] | 0.531
EYFDGYWGYSV [ITGA2B_Y265] | 14.6
FLNSSYINIST [IL23R_Y178_T175N_YF] | 0.464
WIPIQYPIISE [NOG_Y222] | 0.394
FDKPVYQKTTE [LDLR_Y828_N825K] | 0.518
TRSFDYTEGGD [FGF7_Y58_M59T_YF] | 0.52
SASRSYSRSRS [SRRM4_Y549] | 0.426
LGNFNYEQRGA [API5_Y497] | 0.569
